Test results taken from the RNAGym collection of RNA variant scans (doi:10.1073/pnas.2313332121).

B1: TPR t1 (parent)
chain: GACCAAUCUGCCCUCAGAGCUCGAGAACAUCUUCGGAUGCAGAGGAGGCAGGCUUCGGUGGCGCGAUAGCGCCAACGUCCUCAACCUCCAAUGCAUCCCACCACAUGAUGAUGCCUGAAGAGCCUUGGUUUUUUG

Variants of: B1
Assay: polymerase ribozyme fitness, log enrichment relative to wild type (log ratio); higher = more active; in vitro selection for triplet polymerase activity
How it was run: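 Each subunit of a heterodimeric triplet polymerase ribozyme was represented by a PCR-built, transcribed mutant library that underwent triplicate single-round in vitro selection with frozen incubation at −7 °C. Extended constructs were recovered by gel excision, streptavidin-bead capture and RT-PCR, and Illumina sequencing of input and output libraries kept genotypes with ≥10 input reads and ≥1 read per output. Fitness is the logarithm of genotype enrichment relative to wild-type enrichment, from inverse-variance-weighted replicate averages, with a logarithm base of 2.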

Variant | polymerase ribozyme fitness (log ratio)
C70G U78C C82G A91C | -5.79
G63C C124A | 0.234
G44A A121U | 1.03
C15A C82G G117C G120C | -5.78
C13A G39U C56A | -2.45
C88A C123U | 1.08
G36A C56A G61A | -2.16
A18U C73U C101U G120A | -2.78
U21G A37G A41U U78C G113U | -2.05
C12U G45A U96C G110U G135A | -2.06
C11A A27C | -5.15
C79G C101A G135U | -4.68
C73A C85U U116G | -2.18
C15G G57A | -4.5
U54A A95U | -0.632
G23C A46U C86A A119U G120A | -6.31
G48A | -0.658
C53G C73U | -0.493
C12A C72U C98A | -6.65
A5C A16G C20U A43G A121G | -0.652
G58A G60A | -0.506

Variant | polymerase ribozyme fitness (log ratio)
G42A C62U | -2.15
C20A U96A C102G C114A | -5.84
A41G G69C | -1.9
C12G C72U A100C | -1.28
A6U C101A | -0.91
U9C A43G C89U | -0.469
G25C C53A | -6.51
G52C C72A C104U C115G U116C U126G | -6.41
G48A G71C A105C | -4.88
C8G A18U A111G G128A U132C | -2.59
G10A C12A C102A | -2.74
C40G G63U C80G C123U | -6.43
G77A C88G | -0.754
A29C G36U A43U G44A G69U A121C | -2.34
A6G C11G A118U | 0.0523
C20G A37G G69U C79U G117C | -1.73
C15G C53G C72A U81A G120C C123G | -2.32
U54G C56U A121G C124A | -4.56
G77C | -0.424
C15U G61U | -0.638
C20A U59A U78A G117A | -4.88

Variant | polymerase ribozyme fitness (log ratio)
C3A U9A C12A A83G | -2.57
C12U C72U | -0.537
U33A C64U U87A | -4.27
C11A G117A | -3.3
G45A A50U C124U U125G | -0.0022
G17A C124U | -1.79
C13U C64U | 0.138
C34G U125A | -5.11
C40A A43U C70U C86U G93U C97G G135C | -6.34
A46U C115U | -2.18
C8U A24G G36A G44U | -2.87
A6U C72A C102A C123G | 0.361
C73U U132C | -0.238
C85U C123G | 0.896
G71C A83U G113U | -4.07
U9C C70U | -0.0921
A2G C34A U55A U112C | -0.554
C40U G110C | -4.3
A66U A75U G113A | -2.74
C98A C114U | -6.3
C13G C85U | -2.91

Variant | polymerase ribozyme fitness (log ratio)
G23U A26G G63U C82G U133A | -7.09
C20A A95G U112A G120U | -1.91
G58C C101G U112C U129G | -1.34
G44U A46G C62U C94G | -4.05
C56G C102A | -1.59
U7G U30A C101U U109A C124A | -3.51
G63U C79G | -3.17
C80U C98U | -1.69
C22U C64U G77A | -4.03
G10A C12U G71U U112A | 1.43
C28U G44U U59A C89G | -4.37
A16G A41C A84U C99A G117C U133C | -4.53
C11U G39A | -1.08
C3U C8A C79U A121C | 1.18
C80G U87A U116G A119U C124G | -6.5
G42A G117A | -2.65
C40A C64U C80U | -2.24
C11U G42C G44U C62U | -2.34
A6C C13A G48C C49G | -3.01
U21C C70G C94U A111G G128A U131A | -3.27
